This note sets out measurements from patent US20250269025A1 (AVENCELL THERAPEUTICS, published 2025).

No end group written: not given here.

The target of assay [1] is T1, human CD123-Fc (human, UniProt P26951 19-305, limits assumed).
T1 construct: Coupled to a CM5 sensor chip; also called soluble recombinant CD123; not shown: Fc part
T1 sequence (looked up): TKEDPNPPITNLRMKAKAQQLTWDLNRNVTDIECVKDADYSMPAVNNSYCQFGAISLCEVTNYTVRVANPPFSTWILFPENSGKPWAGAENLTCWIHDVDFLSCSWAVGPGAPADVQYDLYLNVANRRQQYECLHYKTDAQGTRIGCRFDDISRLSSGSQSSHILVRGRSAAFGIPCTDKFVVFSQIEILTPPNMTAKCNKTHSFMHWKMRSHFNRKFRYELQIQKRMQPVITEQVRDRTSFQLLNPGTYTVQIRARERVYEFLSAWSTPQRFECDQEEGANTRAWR
The assay is described as follows: SPR, Biacore X100, human CD123-Fc on CM5 chip, 1:1 model; TM not purified monomer. The procedure:
(§1) Binding of different variants of the targeting module according to the invention was analyzed by SPR measurements using human CD123-Fc coupled to a CM5 sensor chip on a Biacore X100 device (FIG. 2). Targeting modules were purified monomer except for the targeting module according to SEQ ID No. 8. […] For data fitting and KD calculation a 1:1 binding model was applied.
Background: In SPR one partner is held on a chip, and binding of the other changes the refractive index at the surface.

The target in assay [2] is T2, La epitope 5B9 (SEQ ID No. 28) fused to human Fc domain (human, also: fused to human Fc domain, order, isotype, linker not given here).
T2 construct: Coupled to a CM5 sensor chip; not shown: human Fc domain
T2 chain: KPLPEVTDEY
The assay is described as follows: SPR, Biacore X100, La epitope 5B9-human Fc on CM5 chip. The method, then: (§2) Furthermore, binding of different variants of the targeting module according to the invention was analyzed using the La epitope 5B9 (SEQ ID No. 28) fused to human Fc domain which was coupled to a CM5 sensor chip on a Biacore X100 device (FIG. 3). The targeting modules were purified monomers. The targeting modules were concentrated between 2.47 to 200 nM and measured in technical duplicates. For data fitting and KD calculation a two-state-reaction binding model was applied.

In assay [3] the target is T3, CD123 on CD123 positive AML cells (Oci-AML3, Molm-13, MV4-11, primary AML cells) (human, UniProt P26951 19-378).
T3 construct: whole, on cells; Endogenous CD123 on human AML cell lines; also called target antigen CD123
The assay is described as follows: cellular binding assay per table caption, Oci-AML3 cells; Oci-AML3 cells.

For assay [4], the target named is T3, CD123 on CD123 positive AML cells …. Put plainly: cellular binding assay per table caption, Molm-13 cells; Molm-13 cells.
The target in assay [5] is T2, La epitope 5B9 (SEQ ID No. 28) fused to …. The assay is described as follows: SPR, Biacore X100, La epitope 5B9-human Fc on CM5 chip; KD 5B9 (second number of the cell). The procedure:
as §2

Assay [6] has as its target T1, human CD123-Fc. Put plainly: SPR, Biacore X100, human CD123-Fc on CM5 chip, 1:1 model; KD CD123 (first number of the cell). The method, then: as §1
For assay [7], the target named is T1, human CD123-Fc. The assay is described as follows: SPR, Biacore X100, human CD123-Fc on CM5 chip, 1:1 model. The procedure:
as §1

Assay [8] deals with T3, CD123 on CD123 positive AML cells …. The assay is described as follows: flow cytometry on Oci-AML3 cells, anti-His-PE detection. Half-maximal binding from a four-parameter fit of gMFI. Unit taken from the concentration axis [M]. The curve has no upper plateau in the range shown. The procedure:
(§3) Cellular binding of CD123-binding targeting modules (TM) was tested on CD123 positive target cell lines Oci-AML3 and Molm-13: A) SEQ ID No. 5 to Oci-AML3, B) SEQ ID No. 9 to Oci-AML3, C) SEQ ID No. 4 to Molm-13 and D) SEQ ID No. 6 to Molm-13. The affinity of TMs was analyzed by flow cytometry. The TMs were titrated on an AML cell lines and then detected by a mouse anti-His-tag antibody conjugated to phycoerythrin.
(§4) Different concentrations of R-TM123 were incubated with cells, washed and quantified. A dose-response curve was obtained when the geometric mean fluorescence (MFI) was plotted against the TM concentration.

The target is the same in assay [9]. The assay is described as follows: cellular binding assay per table caption, Molm-13 cells.
The target is the same in assay [10]. Put plainly: cellular binding assay per table caption, Oci-AML3 cells.
For assay [11] the target is unchanged. The assay is described as follows: flow cytometry on Molm-13 cells, anti-His-PE detection. Half-maximal binding from a four-parameter fit of gMFI. Unit taken from the concentration axis [M]. The procedure: as §3, §4

B1: targeting module according to SEQ ID No. 8 (bispecific antibody)
chain: GQVQLVQSGAEVKKPGASVKMSCKASGYTFTDYYMKWVKQAPGQGLEWIGDIIPSNGATFYNQKFKGRATLTVDKSTSTAYMELSSLRSEDTAVYYCTRSHLLRASWFAYWGQGTLVTVSSASGGGGSGGGGSGGGGSDFVMTQSPDSLAVSLGERATMNCKSSQSLLNSGNQKNYLTWYLQKPGQPPKLLIYWASTRESGVPDRFSGSGSGTDFTLTISSVQAEDVAVYYCQNDYSYPYTFGGGTKLEIKAAARGDIVMTQSPDSLAVSLGERATINCKSSQSLLNSRTPKNYLAWYQQKPGQPPKLLIYWASTRKSGVPDRFSGSGSGTDFTLTISSLQAEDVAVYYCKQSYNLLTFGGGTKVEIKGGGGSGGGGSGASAAGGGGSGGGGSQVQLVQSGAEVKKPGASVKVSCKASGYTFTHYYIYWVRQAPGQGLEWMGGVNPSNGGTHFNEKFKSRVTMTRDTSISTAYMELSRLRSDDTAVYYCARSEYDYGLGFAYWGQGTLVTVSSGGGGSHHHHHHHH
notes: also called huCD123_3 + 5B9-VLVH
As to B1, binding in assay [1] was characterised by a dissociation constant (Kd) of 131 pM.

B2: targeting module according to SEQ ID No. 3 (bispecific antibody)
chain: GQVQLVQSGAEVKKPGSSVKVSCKASGYTFTDYYIHWVRQAPGQGLEWMGDIIPSNGATFYNQRFKGRVTITADESTSTAYMELSSLRSEDTAVYYCTRSHLLRASWFAYWGQGTLVTVSSASGGGGSGGGGSGGGGSDIVMTQTPLSLSVTPGQPASISCRSSQSLLNSGNQKNYLTWYLQKPGQSPQLLIYWASTRFIGVPDRFSGSGSGTDFTLKISRVEAEDVGVYYCQNDYSYPYTFGQGTKLEIKAAARGDIVMTQSPDSLAVSLGERATINCKSSQSLLNSRTPKNYLAWYQQKPGQPPKLLIYWASTRKSGVPDRFSGSGSGTDFTLTISSLQAEDVAVYYCKQSYNLLTFGGGTKVEIKGGGGSGGGGSGASAAGGGGSGGGGSQVQLVQSGAEVKKPGASVKVSCKASGYTFTHYYIYWVRQAPGQGLEWMGGVNPSNGGTHFNEKFKSRVTMTRDTSISTAYMELSRLRSDDTAVYYCARSEYDYGLGFAYWGQGTLVTVSSGGGGSHHHHHHHH
notes: also called huCD123_1 + 5B9-VL-VH
B2: in [2], the Kd (in general, the equilibrium constant for the complex coming apart) worked out at 2000 pM. Further, the EC50 (commonly the concentration that produces a half-maximal response) in assay [3] stood at 23000 pM.

B3: targeting module according to SEQ ID No. 2 (reference) (bispecific antibody)
chain: EVQLQQSGPELVKPGASVKMSCKASGYTFTDYYMKWVKQSHGKSLEWIGDIIPSNGATFYNQKFKGKATLTVDRSSSTAYMHLNSLTSEDSAVYYCTRSHLLRASWFAYWGQGTLVTVSAASGGGGSGGGGSGGGGSDFVMTQSPSSLTVTAGEKVTMSCKSSQSLLNSGNQKNYLTWYLQKPGQPPKLLIYWASTRESGVPDRFTGSGSGTDFTLTISSVQAEDLAVYYCQNDYSYPYTFGGGTKLEIKAAARGQVQLVQSGAEVKKPGASVKVSCKASGYTFTHYYIYWVRQAPGQGLEWMGGVNPSNGGTHFNEKFKSRVTMTRDTSISTAYMELSRLRSDDTAVYYCARSEYDYGLGFAYWGQGTLVTVSSGGGGSGGGGSGGGGSDIVMTQSPDSLAVSLGERATINCKSSQSLLNSRTPKNYLAWYQQKPGQPPKLLIYWASTRKSGVPDRFSGSGSGTDFTLTISSLQAEDVAVYYCKQSYNLLTFGGGTKVEIKGPEQKLISEEDLNSAVDHHHHHH
notes: also called muCD123 + 5B9-VH-VL
On to B3, for which the EC50 in assay [4] is 2.3 pM; in assay [3] it was 3.2 pM. The figures for the Kd in [5] and in [6] were 17000 pM and 227 pM, respectively.

B4: targeting module according to SEQ ID No. 9 (bispecific antibody)
chain: EVQLVQSGAEVKKPGASVKMSCKASGYTFTDYYMKWVKQAPGQGLEWIGDIIPSNGATFYNQKFKGRATLTVDRSTSTAYMELSSLRSEDTAVYYCTRSHLLRASWFAYWGQGTLVTVSSASGGGGSGGGGSGGGGSDFVMTQSPDSLAVSLGERATINCESSQSLLNTGNQKNYLTWYLQKPGQPPKLLIYWASTRESGVPDRFSGSGSGTDFTLTISSVQAEDVAVYYCQNDYSYPYTFGGGTKLEIKAAARGDIVMTQSPDSLAVSLGERATINCKSSQSLLNSRTPKNYLAWYQQKPGQPPKLLIYWASTRKSGVPDRFSGSGSGTDFTLTISSLQAEDVAVYYCKQSYNLLTFGGGTKVEIKGGGGSGGGGSGASAAGGGGSGGGGSQVQLVQSGAEVKKPGASVKVSCKASGYTFTHYYIYWVRQAPGQGLEWMGGVNPSNGGTHFNEKFKSRVTMTRDTSISTAYMELSRLRSDDTAVYYCARSEYDYGLGFAYWGQGTLVTVSSGGGGSHHHHHHHH
notes: also called huCD123_4 + 5B9-VLVH
In the case of B4, the Kd in assay [7] amounted to 162 pM; in assay [8] it was 6770 pM.

B5: targeting module according to SEQ ID No. 6 (bispecific antibody)
chain: EVQLQQSGPELVKPGASVKMSCKASGYTFTDYYMKWVKQSHGKSLEWIGDIIPSNGATFYNQKFKGKATLTVDRSSSTAYMHLNSLTSEDSAVYYCTRSHLLRASWFAYWGQGTLVTVSAASGGGGSGGGGSGGGGSDFVMTQSPSSLTVTAGEKVTMSCKSSQSLLNSGNQKNYLTWYLQKPGQPPKLLIYWASTRESGVPDRFTGSGSGTDFTLTISSVQAEDLAVYYCQNDYSYPYTFGGGTKLEIKAAARGDIVMTQSPDSLAVSLGERVTMNCKSSQSLLNSRTPKNYLAWYQQKPGQSPKLLIYWASTRKSGVPDRFSGSGSGTDFTLTISSVQAEDVAVYYCKQSYNLLTFGGGTKLEIKGGGGSGGGGSGASAAGGGGSGGGGSQVQLVESGAEVVKPGASVKLSCKASGYAFTHYYIYWIKQAPGQGLEWIGGVNPSNGGTHFNEKFKSRATLTVDTSISTAYMELSRLRSDDTAVYYCTRSEYDYGLGFAYWGQGTLVTVSSGGGGSHHHHHHHH
notes: also called muCD123 + rs5B9-VL-VH
Regarding B5, the values for the EC50 in assay [9] and in assay [10] were 1.7 pM and 6.2 pM, respectively. For the same molecule, the Kd in assay [5] stood at 2100 pM; in assay [6], 44 pM; in assay [11] it was 7690 pM.
